Source: the DeepSol protein solubility set

Test: soluble on expression in E. coli; label from the status in PepcDB or PDB records
With “MEEDNQQDQNNQYVIYHPFFSEGCHFYFIISCTNSFIRVALKIGLIGDSQIGKTSLMVKYVEGSFDEDYIQTLGVNFMDKKIQIRNTTITFSIWDLGGQKEFINMLPLVSNDAVAILFMFDLTRKSTLNSIKEWYRQVRGFNKTAIPFLVGTKYDQFIDLSFQDQIEITQQAKKFGSAMKAPVIFCSTSHSINVQKIFKIILSKAFDLKLNLDEIVNVGEPILIYK” the “soluble on expression in E. coli” value was “not soluble”. For “MSQLCPCGSAVEYSLCCHPYVSGEKVAPDPEHLMRSRYCAFVMQDADYLIKTWHPSCGAAALRAELMAGFAHTEWLGLTVFEHCWQDADNIGFVSFVARFTEGGKTGAIIERSRFLKENGQWYYIDGTRPQFGRNDPCPCGSGKKFKKCCGQ”, the “soluble on expression in E. coli” value was “not soluble”. For “MGSDKIHHHHHHLRNVLPKDALLTAVDISDSMMDVARAKFLPHEQVTFQVADATTLPFENEAFDAVVCQFGVMFFDKDTAFREAYRTLGRGGRYLFSVWDSRRYNPFASLAFEVLKQFFPLNPPRFLEAPVSSFEIDPIKEALIQSGFERIVISVQGREHDILDVRTFARGLVFSPVIEEIRERGGVEPEDIIAALAEALKREYGSRPTRYPMQAILFEAEKP”, the “soluble on expression in E. coli” value was “not soluble”. With “MPGVEPYEPLQLMGRDVYIREGCVGCHSQQVRTLQAEVQRYGPYSVAGESVFDHPFLWGSKRTGPDLARVGERYSDEWHRIHLRDPRAVVPESNMPAYPWLQHADLTGQNVAQRMQALRRLGVPYTDEAIAAAPAAIAGKTEEDALVAYLQALG” the “soluble on expression in E. coli” value was “not soluble”. With “MGGGGEDEYESLPTHSVPVHLTAGALAGAVEHCVMFPFDSVKTRMQSLCPCPETKCPTPVHSLMSIVKREGWLRPLRGVNAVAAGSMPAHALYFTVYEKMKGYLTGNSAGHSNTLAYGASGVVATLIHDAIMNPAEVVKQRMQMAFSPYGSSLECARCVYNREGVAAFYRSYTTQLAMNVPFQAIHFMSYEFWQHVLNPEHKYDPKSHLIAGGLAGGLAAALTTPMDCVKTVLNTQQAAEADPANRRIFLQARYRYRGISDAVRTIYSQRGLSGFSCGLQARVIFQVPATALSWSVYELFKFMLSFEGGHSS” the “soluble on expression in E. coli” value was “not soluble”. For “LCPDAVAGIAVAAPHIYVEDITVANIAVALRAYRETTLRDRLARYHDDVDSTFASWTDTWLDPAFRQWNIEAYLPAITCPMLAMQGVDDEYGTLEQIRGIRRLAPQTRLLEIQDCGHSPHKDQPELVTRALAGFV”, the “soluble on expression in E. coli” value was “not soluble”. With “MSLGNIKTLLENRFKKPTSDKMESLAKKRLEGELSPFLNGFTNPKLSSQEEAKFRQLLEEYSFSNEISKHDLQQLCHLSAQVKQIHHQAVLLHGERIKKVRELLTSYREGAFSAWLLLTYGNRQTPYNFLVYYELFSTLPDSLKLELEKLPRQAVYTLAAREGTQEKKEAIIRNYQGETKGELLEIIRKEFPLLPTDRRHTPLSQKAFTLLAKGTKLLRQCTDVSHEELIALEKLIKKLQKVTTNLLSNTKVSRNDNEIQNSRNEGHHHHHH” the “soluble on expression in E. coli” value was “soluble”. For “SAPALLTAAQRTMLAQVGACNSHLTSDENMAINELRLHKPRLPKDTWFFTDPNKDPDDVVTYTLGKQLQAEGFVHITDVVATLGDAEVRSQRAEMAKGVFNKLGLHDVHVSRGRDYAMNSLQSKEHAKFLLEGHALRAGPGEIHRDSLQDMSRRLARAPHGVGIVVIAGMSDINALITTCPDMVRERVDDITIMGGVEPLKDADGFVQPDARAYNNATDMDAARSLYRKAQELGIPLRIVTKEAAYKTAVSPSFYEGIAGSGHPVGHYLRDVQKSALKGLWEGIQAGLLPGLDDSWFFRTFMPNAQIEAAQLDKNKESSFEDIWPKVTKLNLYDPLTLLASVPGAAKLLFKPKAIHTEGFGVVEQVGPDDVTHPEKAKLLMSALAKSALVQSTVAPD”, the “soluble on expression in E. coli” value was “soluble”. In the case of “MLHVAGRIEDYALIGDMQIAALVCQDGTVDWLCLPRFDSHAVFAGLLGTEEHGFWRLGPAHASDAEPPRASRRTYRGDSLILESEWDTPRGTVRVTDFMPPRDGAPQLIRIVEGVTGRVPMRSALRMRFSYGLEHHHHHH”, the “soluble on expression in E. coli” value is reported as “not soluble”. In the case of “MLVPSANRWVPKFKSKKTEKKLAPDGKTELLDKDEVERKMKSLLNKLTLEMFDAISSEILAIANISVWETNGETLKAVIEQIFLKACDEPHWSSMYAQLCGKVVKELNPDITDETNEGKTGPKLVLHYLVARCHAEFDKGWTDKLPTNEDGTPLEPEMMSEEYYAAASAKRRGLGLVRFIGFLYRLNLLTGKMMFECFRRLMKDLTDSPSEETLESVVELLNTVGEQFETDSFRTGQATLEGSQLLDSLFGILDNIIQTAKISSRIKFKLIDIKELRHDKNWNS”, the “soluble on expression in E. coli” value is reported as “soluble”. In the case of “MSAKLISVTKPVVEGVNTAEELIAYAARVSNPENQINNKTASGLLKYCIRHKHWSIFETAFMTLELKTSRGIAAQVIRHRSFHFQEFSQRYASVMETPPPHQARFQDHKNRQNSLDTVPEDDQTWWATEQEKLYAQSMELYNKALEKGIAKECARFILPLSTPTTIYMSGTIRDWIHYIELRTSNGTQREHIDLANACKEIFIKEFPSIAKALDWVH”, the “soluble on expression in E. coli” value is reported as “soluble”. For “MKFIFFVLYVLQFLPFALLHKIADLTGLLAYLLVKPRRRIGEINLAKCFSEWSEEKRKTVLKQHFKHMAKLMLEYGLYWYAPAGRLKSLVRYRNKHYLDDALAAGEKVIILYPHFTAFEMAVYALNQDIPLISMYSHQKNKILDEQILKGRNRYHNVFLIGRTEGLRALVKQFRKSSAPFLYLPDQDFGRNDSVFVDFFGIQTATITGLSRIAALANAKVIPAIPVREADNTVTLHFYPAWKSFPGEDAKADAQRMNRFIEDRVREHPEQYFWLHKRFKTRPEGSPDFY”, the “soluble on expression in E. coli” value was “not soluble”. With “MENMENDENIVVGPKPFYPIEEGSAGTQLRKYMERYAKLGAIAFTNAVTGVDYSYAEYLEKSCCLGKALQNYGLVVDGRIALCSENCEEFFIPVIAGLFIGVGVAPTNEIYTLRELVHSLGISKPTIVFSSKKGLDKVITVQKTVTTIKTIVILDSKVDYRGYQCLDTFIKRNTPPGFQASSFKTVEVDRKEQVALIMNSSGSTGLPKGVQLTHENTVTRFSHARDPIYGNQVSPGTAVLTVVPFHHGFGMFTTLGYLICGFRVVMLTKFDEETFLKTLQDYKCTSVILVPTLFAILNKSELLNKYDLSNLVEIASGGAPLSKEVGEAVARRFNLPGVRQGYGLTETTSAIIITPEGDDKPGASGKVVPLFKAKVIDLDTKKSLGPNRRGEVCVKGPMLMKGYVNNPEATKELIDEEGWLHTGDIGYYDEEKHFFIVDRLKSLIKYKGYQVPPAELESVLLQHPSIFDAGVAGVPDPVAGELPGAVVVLESGKNMTEKEVMDYVASQVSNAKRLRGGVRFVDEVPKGLTGKIDGRAIREILKKPVAKM” the “soluble on expression in E. coli” value was “soluble”. For “MAKQKDNYLDYVPKHNSLFECRENKKGHVEVKVHNKGIFNRIAQLIARKPRYSYIELDDFGTFVWHSIDGVRSIYDIGQLVKEHFGDKAEPLYERLCYFIKLLHKNQFIVYMNKINKQINK”, the “soluble on expression in E. coli” value was “not soluble”. For “MKQFKRGIERDGTGFVVLMAEEAEDMWHIYNLIRIGDIIKASTIRKVVSETSTGTTSSQRVHTMLTVSVESIDFDPGAQELHLKGRNIEENDIVKLGAYHTIDLEPNRKFTLQKTEWDSIDLERLNLALDPAQAADVAAVVLHEGLANVCLITPAMTLTRAKIDMTIPRKRKGFTSQHEKGLEKFYEAVSTAFMRHVNLQVVKCVIVASRGFVKDAFMQHLIAHADANGKKFTTEQRAKFMLTHSSSGFKHALKEVLETPQVALRLADTKAQGEVKALNQFLELMSTEPDRAFYGFNHVNRANQELAIETLLVADSLFRAQDIETRRKYVRLVESVREQNGKVHIFSSMHVSGEQLAQLTGCAAILRFPMPDLDDEPMDEN”, the “soluble on expression in E. coli” value was “not soluble”. In the case of “MKVTNLFKDKVDAISAHQSEFMNWMSPTLRDYWSDFLGKAQNSFLFSNVRDHNQPAVNEEVAPQPAPIVLQPEAQKLYDELSGKIGEVIHTGDWVHVSQERINQFGAVTEDMQWIHTDPERASVESPFKTTIAHGFLTLALLPKLTDSVDADKPLFPTAKLVVNLGLNQVRFPYPVKAGNNVRAVSTLTKVTPIKKGLEIEREIKVEIEGVRRPGAVVVSVIQLHFLEHHHHHH”, the “soluble on expression in E. coli” value is reported as “soluble”. In the case of “MGSDKIHHHHHHMSNTVRAISPDITLFNKTLTFQEISQNTREAVIYIHGGAWNDPENTPNDFNQLANTIKSMDTESTVCQYSIEYRLSPEITNPRNLYDAVSNITRLVKEKGLTNINMVGHSVGATFIWQILAALKDPQEKMSEAQLQMLGLLQIVKRVFLLDGIYSLKELLIEYPEYDCFTRLAFPDGIQMYEEEPSRVMPYVKKALSRFSIDMHLVHSYSDELLTLRQTNCLISCLQDYQLSFKLYLDDLGLHNDVYKNGKVAKYIFDNIC”, the “soluble on expression in E. coli” value is reported as “soluble”. With “MSLARTNVMIAETFPEYLVDHNLIDCEVESLCNGMVRYEKRPARRRDGSVAEGLYNAWIIFNNPRQYNSYTTEMVKATILAFRRASVDREVNAVVFTGVGDKAFCTGGNTKEYAEYYAGNPQEYRQYMRLFNDMVSSILGCDRPVICRVNGMRIGGGQEIGMACDFSIAQDLAKFGQAGPKHGSAAIGGATDFLPIMIGCEQAMVSGTLCEPFSAHKAARLGIIADVVPALKVGGTFVANPTVVTDRFLDEYGRVVQGEFKTGADFKAGQARIKEGEVDLSLLDEKVEELCAKLLETFPECMTKSLEELRKPKLQAWNLNKENSRAWLALNMMNEARIGFRAFNEGTKETGREIDFVKLRRQLAEGTPWAEELIEEGHHHHHH” the “soluble on expression in E. coli” value was “soluble”. With “KKAITCGEKEKQDLIKSLAMLKDGFRTDRGSHSDLWSSSSSLESSSFPLPKQYLDVSSQTDISGSFGINSNNQLAEKVRLRLRYEEAKRRIANLKIQLAKLDSEAWPGVLDSERDRLILINEKEELLKEMRFISPRKWTQGEVEQLEMARKRLEKDLQAARDTQSKALTERLKLNSKRNQLVRELEEATRQVATLHSQLKSLSSSMQSLSSGSSPGSLTSSRGSLVASSLDSSTSASFTDLYYDPFEQLDSELQSKVEFLLLEGATGFRPSGCITTIHEDEVAKTQKAEGGGRLQALRSLSGTPKSMTSLSPRSSLSSPSPPCSPLMADPLLAGDAFLNSLEFEDPELSATLCELSLGNSAQERYRLEEPGTEGKQLGQAVNTAQGCGLKVACVSAAVSDESVAGDSGVYEASVQRLGASEAAAFDSDESEAVGATRIQIALKYDEKNKQFAILIIQLSNLSALLQQQDQKVNIRVAVLPCSESTTCLFRTRPLDASDTLVFNEVFWVSMSYPALHQKTLRVDVCTTDRSHLEECLGGAQISLAEVCRSGERSTRWYNLLSYKYLKKQSRELKPVGVMAPASGPASTDAVSALLEQTAVELEKRQEGRSSTQTLEDSWRYEETSENEAVAEEEEEEVEEEEGEEDVFTEKASPDMDGYPALKVDKETNTETPAPSPTVVRPKDRRVGTPSQGPFLRGSTIIRSKTFSPGPQSQYVCRLNRSDSDSSTLSKKPPFVRNSLERRSVRMKRPSSVKSLRSERLIRTSLDLELDLQATRTWHSQLTQEISVLKELKEQLEQAKSHGEKELPQWLREDERFRLLLRMLEKRMDRAEHKGELQTDKMMRAAAKDVHRLRGQSCKEPPEVQSFREKMAFFTRPRMNIPALSADDV” the “soluble on expression in E. coli” value was “soluble”. In the case of “MTTVRIPAGWPATEEEARAVQDELRGRVILDEPGPPPGTGRVTGVDVAYDDERDVVVAAAVVLDAATLDVVAEATAVGEVSFPYVPGLLAFREIPTVLAALDALPCPPGLIVCDGYGVAHPRRFGLASHLGVLTGLPTIGVAKNPFTFSYEDPGAPRGSAAPLLAGADEVGRALRTQSGVKPVFVSVGHRVDLDHACAHTLALTPKYRIPETTRRADSLCRRALKEATALEHHHHHH”, the “soluble on expression in E. coli” value is reported as “soluble”.
